{
  "source": "the supplement of paper PMC7125110",
  "parents": {"B1": {"name": "glmS ribozyme (parent)", "chain": "AUAAAAGCGCCAGAACUACAGAAAUGUAGUUGACGAGGAGGAGGUUUAUCGAAUUUUCGGCGGAUGCCUCCAAA"}},
  "note": "± gives the standard error. This sample holds only a part of the variants without activity.",
  "data": [
    {"variants_of": "B1", "experiment": "self-cleavage kobs at 2500 uM GlcN6P; higher = faster cleavage; RNA array", "settings": "with glucosamine-6-phosphate", "in_short": "(§1)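 A hybridised Cy3 probe tracked barcoded ribozyme variants, transcribed in situ by E. coli RNA polymerase on sequenced MiSeq chips, at 37 °C. The variants received 40 μM to 10 mM glucosamine-6-phosphate in HEPES/KCl/Mg(OAc)2 buffer. kobs came from decay fits and kcat and KM from weighted Michaelis–Menten fits.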", "units": {"self-cleavage kobs at 2500 uM GlcN6P": "s⁻¹"}, "values": [
      {"variant": "A33U U55G C58G", "self-cleavage kobs at 2500 uM GlcN6P": "< 1e-05"},
      {"variant": "G40U C58A G60U", "self-cleavage kobs at 2500 uM GlcN6P": "< 1e-05"},
      {"variant": "G32U A42U C68A", "self-cleavage kobs at 2500 uM GlcN6P": "< 1e-05"},
      {"variant": "A39U A64C C70G", "self-cleavage kobs at 2500 uM GlcN6P": "< 1e-05"},
      {"variant": "A33C A53G U55G", "self-cleavage kobs at 2500 uM GlcN6P": "0.000103 ± 2.8e-05"},
      {"variant": "G37A G44U G51U G66A", "self-cleavage kobs at 2500 uM GlcN6P": "< 1e-05"},
      {"variant": "U45G G63U C70G", "self-cleavage kobs at 2500 uM GlcN6P": "< 1e-05"},
      {"variant": "A36U A42G U49G U56C G66U C71U", "self-cleavage kobs at 2500 uM GlcN6P": "< 1e-05"},
      {"variant": "A33G U69G", "self-cleavage kobs at 2500 uM GlcN6P": "5.67e-05 ± 1.7e-05"},
      {"variant": "G37C U55G G63A C71G", "self-cleavage kobs at 2500 uM GlcN6P": "< 1e-05"},
      {"variant": "G32C C50U U69A", "self-cleavage kobs at 2500 uM GlcN6P": "0.000245 ± 8.3e-05"},
      {"variant": "G44A A53U U54C", "self-cleavage kobs at 2500 uM GlcN6P": "0.000119 ± 4.8e-05"},
      {"variant": "G37C G44A G51U G59C", "self-cleavage kobs at 2500 uM GlcN6P": "< 1e-05"},
      {"variant": "A36C A42C U54C", "self-cleavage kobs at 2500 uM GlcN6P": "< 1e-05"},
      {"variant": "A42G U65A G66U", "self-cleavage kobs at 2500 uM GlcN6P": "7.25e-05 ± 2.4e-05"},
      {"variant": "U31C G35U A48U U49G U57C", "self-cleavage kobs at 2500 uM GlcN6P": "< 1e-05"},
      {"variant": "A42U C50G G51C U69G C71G", "self-cleavage kobs at 2500 uM GlcN6P": "< 1e-05"},
      {"variant": "G37A G38C A42C", "self-cleavage kobs at 2500 uM GlcN6P": "< 1e-05"},
      {"variant": "A36G G40C C61U G63C A64C", "self-cleavage kobs at 2500 uM GlcN6P": "< 1e-05"},
      {"variant": "A39U A48U C67G", "self-cleavage kobs at 2500 uM GlcN6P": "0.00017 ± 6.1e-05"},
      {"variant": "G32A A39C C50U", "self-cleavage kobs at 2500 uM GlcN6P": "< 1e-05"},
      {"variant": "G32U C34A G43C C71G", "self-cleavage kobs at 2500 uM GlcN6P": "< 1e-05"},
      {"variant": "U45G U46G A52G", "self-cleavage kobs at 2500 uM GlcN6P": "5.59e-05 ± 2.7e-05"},
      {"variant": "C34U C50G C68A U69A", "self-cleavage kobs at 2500 uM GlcN6P": "0.000141 ± 4.9e-05"},
      {"variant": "A33U G43A U57C", "self-cleavage kobs at 2500 uM GlcN6P": "< 1e-05"},
      {"variant": "G40U U46C A64G", "self-cleavage kobs at 2500 uM GlcN6P": "9.83e-05 ± 2.4e-05"},
      {"variant": "U31G G32U U45A C71U", "self-cleavage kobs at 2500 uM GlcN6P": "0.000679 ± 0.00029"},
      {"variant": "A39C A53G C58A C61A", "self-cleavage kobs at 2500 uM GlcN6P": "< 1e-05"},
      {"variant": "C34U C68U", "self-cleavage kobs at 2500 uM GlcN6P": "< 1e-05"},
      {"variant": "G43U G60A G66A C68G C70G", "self-cleavage kobs at 2500 uM GlcN6P": "< 1e-05"},
      {"variant": "G37U G51C A52G C61U C67U", "self-cleavage kobs at 2500 uM GlcN6P": "< 1e-05"},
      {"variant": "A39G A42U C68U", "self-cleavage kobs at 2500 uM GlcN6P": "0.000999 ± 0.00036"},
      {"variant": "G44U G62C G66A C67G", "self-cleavage kobs at 2500 uM GlcN6P": "< 1e-05"},
      {"variant": "A33C G41C U69G", "self-cleavage kobs at 2500 uM GlcN6P": "< 1e-05"},
      {"variant": "A36G G43U C70G", "self-cleavage kobs at 2500 uM GlcN6P": "< 1e-05"},
      {"variant": "G32A G60A U65C", "self-cleavage kobs at 2500 uM GlcN6P": "< 1e-05"},
      {"variant": "U31C C34G A39U A42G U47C C70A", "self-cleavage kobs at 2500 uM GlcN6P": "< 1e-05"},
      {"variant": "A36U U45G C61G", "self-cleavage kobs at 2500 uM GlcN6P": "< 1e-05"}
    ]},
    {"variants_of": "B1", "experiment": "self-cleavage kobs at 10000 uM GlcN6P; higher = faster cleavage; RNA array", "settings": "with glucosamine-6-phosphate", "in_short": "as §1", "units": {"self-cleavage kobs at 10000 uM GlcN6P": "s⁻¹"}, "values": [
      {"variant": "A33C A53G U55G", "self-cleavage kobs at 10000 uM GlcN6P": "0.000163 ± 2.9e-05"},
      {"variant": "A36U A42G U49G U56C G66U C71U", "self-cleavage kobs at 10000 uM GlcN6P": "< 1e-05"},
      {"variant": "G37C U55G G63A C71G", "self-cleavage kobs at 10000 uM GlcN6P": "< 1e-05"},
      {"variant": "G44A A53U U54C", "self-cleavage kobs at 10000 uM GlcN6P": "0.000211 ± 6.8e-05"},
      {"variant": "A39U A48U C67G", "self-cleavage kobs at 10000 uM GlcN6P": "0.000104 ± 1.6e-05"},
      {"variant": "G32U C34A G43C C71G", "self-cleavage kobs at 10000 uM GlcN6P": "< 1e-05"}
    ]}
  ]
}
